Test results published in article PMC5624926.

Key:
CD22_(20–687)F (human) [1] = target: CD22_(20–687)F (human) (UniProt P20273); assay: BLI; Octet RED96; CD22_(20–687) forms loaded on Ni-NTA biosensors; Fab in solution 500 to 62.5 nM; 1x PBS pH 7.4, 0.002% Tween, 0.01% BSA; 1:1 fit; triplicate
dCD22_(20–687) (human) [2] = target: dCD22_(20–687) (human) (UniProt P20273); assay: as above
CD22_(20–687)F (human) [3] = target: CD22_(20–687)F (human) (UniProt P20273); assay: ITC; Auto-ITC200; 5 μM CD22 in the cell, 50 μM Fab in the syringe; 35 °C; triplicate
dCD22_(20–687) (human) [4] = target: dCD22_(20–687) (human) (UniProt P20273); assay: as above

B1: epratuzumab Fab (Fab, V domains shown)
VH: QVQLVQSGAEVKKPGSSVKVSCKASGYTFTSYWLHWVRQAPGQGLEWIGYINPRNDYTEYNQNFKDKATITADESTNTAYMELSSLRSEDTAFYFCARRDITTFYWGQGTTVTVSS
VL: DIQLTQSPSSLSASVGDRVTMSCKSSQSVLYSANHKNYLAWYQQKPGKAPKLLIYWASTRESGVPSRFSGSGSGTDFTLTISSLQPEDIATYYCHQYLSSWTFGGGTKLEIK
- Kd (CD22_(20–687)F (human) [1]): 327 nM
- Kd (dCD22_(20–687) (human) [2]): 24 nM
- Kd (CD22_(20–687)F (human) [3]): 188 nM
- Kd (dCD22_(20–687) (human) [4]): 58 nM
